The values that follow are results of earlier work, collected in paper PMC4650670.

The data set concerns the target actin (Oryctolagus cuniculus) (UniProt P68135).

In the case of “nebulin repeat fragment (from UniProt P20929)”, the Kd is 220 µM.
